The Human Domainome abundance scans (Beltran et al. 2025)
± gives the uncertainty stated by the source.

B1: Apoptosis-associated speck-like protein containing a CARD, residues 114 to 194; numbered along this chain, Q9ULZ3 (parent)
chain: FIDQHRAALIARVTNVEWLLDALYGKVLTDEQYQAVRAEPTNPSKMRKLFSFTPAWNWTCKDLLLQALRESQSYLVEDLER
B2: POU domain, class 4, transcription factor 3, residues 185 to 256; numbered along this chain, Q15319 (parent)
chain: RELEAFAERFKQRRIKLGVTQADVGAALANLKIPGVGSLSQSTICRFESLTLSHNNMIALKPVLQAWLEEAE

Variants of: B1
Assay: abundance fitness (aPCA) (normalised: wild type 0, dead -1); higher = more abundant; growth selection in yeast, the domain comes from the species named
Details: Homo sapiens
For D21E, the abundance fitness was -0.091 ± 0.069.
In the case of D21T, the abundance fitness is reported as -0.313 ± 0.07.
D21Q showed an abundance fitness of -0.115 ± 0.082.
D21C gave an abundance fitness of -0.466 ± 0.13.
With D21N the abundance fitness was -0.264 ± 0.086.
In the case of T59S, the abundance fitness is reported as -0.04 ± 0.046.
T59A showed an abundance fitness of 0.109 ± 0.046.
With T59C the abundance fitness was -0.135 ± 0.079.
With P43T the abundance fitness was 0.04 ± 0.068.

Variants of: B2
Assay: as above
Details: Homo sapiens
Work on L64I yielded an abundance fitness of -0.402 ± 0.098.
In the case of L64C, the abundance fitness is reported as -0.717 ± 0.084.
Variant L64M has an abundance fitness of -0.17 ± 0.034.
Work on L64Y yielded an abundance fitness of -0.322 ± 0.069.
In the case of L64G, the abundance fitness is reported as -0.836 ± 0.037.
L64K showed an abundance fitness of -0.678 ± 0.066.
Variant L64V has an abundance fitness of -0.425 ± 0.024.
Work on L64E yielded an abundance fitness of -0.788 ± 0.049.
Variant L64N has an abundance fitness of -0.758 ± 0.11.
L64D gave an abundance fitness of -0.737 ± 0.084.
L64R showed an abundance fitness of -0.818 ± 0.055.
L64S showed an abundance fitness of -0.768 ± 0.076.
With L64F the abundance fitness was -0.412 ± 0.06.
Variant P62A has an abundance fitness of -0.376 ± 0.043.
P62K gave an abundance fitness of -0.177 ± 0.052.
P62I gave an abundance fitness of -0.753 ± 0.1.
P62D gave an abundance fitness of -0.413 ± 0.081.
Variant P62W has an abundance fitness of -0.689 ± 0.047.
P62V showed an abundance fitness of -0.378 ± 0.033.
Work on P62N yielded an abundance fitness of -0.371 ± 0.094.
In the case of P62F, the abundance fitness is reported as -0.461 ± 0.058.
With P62R the abundance fitness was -0.376 ± 0.036.
For P62E, the abundance fitness was -0.23 ± 0.049.
In the case of P62L, the abundance fitness is reported as -0.53 ± 0.028.
P62T showed an abundance fitness of -0.221 ± 0.042.
With P62S the abundance fitness was -0.188 ± 0.031.
P62H gave an abundance fitness of -0.109 ± 0.12.
Variant P62M has an abundance fitness of -0.56 ± 0.046.
Work on P62Q yielded an abundance fitness of -0.393 ± 0.049.
In the case of P62G, the abundance fitness is reported as -0.244 ± 0.036.
For P62C, the abundance fitness was -0.565 ± 0.053.
In the case of L68Q, the abundance fitness is reported as -0.497 ± 0.047.
Work on L68I yielded an abundance fitness of -0.056 ± 0.069.
L68A showed an abundance fitness of -0.287 ± 0.032.
In the case of L68G, the abundance fitness is reported as -0.685 ± 0.042.
Variant L68Y has an abundance fitness of -0.287 ± 0.052.
In the case of L68V, the abundance fitness is reported as -0.13 ± 0.026.
L68R showed an abundance fitness of -0.96 ± 0.068.
With L68T the abundance fitness was -0.46 ± 0.038.
In the case of L68P, the abundance fitness is reported as -1.06 ± 0.14.
Work on L68D yielded an abundance fitness of -0.872 ± 0.078.
With L68N the abundance fitness was -0.912 ± 0.12.
Variant L68F has an abundance fitness of -0.585 ± 0.067.
For L68C, the abundance fitness was -0.257 ± 0.072.
For L68K, the abundance fitness was -0.901 ± 0.054.
L68W gave an abundance fitness of -0.574 ± 0.041.
With L68M the abundance fitness was -0.056 ± 0.031.
L68E gave an abundance fitness of -0.503 ± 0.042.
Variant E72C has an abundance fitness of -0.175 ± 0.051.
Work on E72D yielded an abundance fitness of -0.111 ± 0.042.
E72V gave an abundance fitness of -0.265 ± 0.025.
E72M gave an abundance fitness of -0.36 ± 0.038.
For E72W, the abundance fitness was -0.325 ± 0.037.
E72S gave an abundance fitness of -0.153 ± 0.028.
Variant E72G has an abundance fitness of -0.278 ± 0.037.
E72K gave an abundance fitness of -0.384 ± 0.052.
E72T gave an abundance fitness of -0.219 ± 0.043.
E72L gave an abundance fitness of -0.363 ± 0.024.
For E72H, the abundance fitness was -0.378 ± 0.053.
E72A gave an abundance fitness of -0.31 ± 0.03.
With E72N the abundance fitness was -0.192 ± 0.057.
For E72Q, the abundance fitness was -0.263 ± 0.042.
Variant E72Y has an abundance fitness of -0.544 ± 0.054.
With E72F the abundance fitness was -0.63 ± 0.043.
In the case of E72R, the abundance fitness is reported as -0.526 ± 0.035.
E69P showed an abundance fitness of -0.672 ± 0.058.
Work on E69C yielded an abundance fitness of 0.006 ± 0.073.
In the case of E69G, the abundance fitness is reported as -0.194 ± 0.049.
With E69I the abundance fitness was -0.106 ± 0.059.
For E69R, the abundance fitness was -0.065 ± 0.033.
Work on E69M yielded an abundance fitness of -0.041 ± 0.048.
Work on E69Y yielded an abundance fitness of -0.059 ± 0.069.
E69V showed an abundance fitness of -0.046 ± 0.037.
For E69T, the abundance fitness was -0.075 ± 0.04.
E69N showed an abundance fitness of -0.06 ± 0.11.
E69A gave an abundance fitness of 0.04 ± 0.048.
E69W gave an abundance fitness of -0.232 ± 0.048.
Work on E69D yielded an abundance fitness of -0.039 ± 0.078.
Variant E69Q has an abundance fitness of -0.091 ± 0.061.
E69L showed an abundance fitness of -0.097 ± 0.027.
In the case of E69F, the abundance fitness is reported as -0.2 ± 0.06.
Variant E69H has an abundance fitness of -0.332 ± 0.15.
With E69K the abundance fitness was -0.041 ± 0.05.
With E70Q the abundance fitness was -0.084 ± 0.055.
With E70M the abundance fitness was -0.253 ± 0.048.
In the case of E70I, the abundance fitness is reported as -0.348 ± 0.054.
In the case of E70D, the abundance fitness is reported as -0.118 ± 0.069.
E70K gave an abundance fitness of -0.03 ± 0.053.
E70N gave an abundance fitness of 0.114 ± 0.056.
E70V gave an abundance fitness of -0.307 ± 0.036.
Work on E70H yielded an abundance fitness of -0.014 ± 0.064.
E70Y showed an abundance fitness of -0.245 ± 0.06.
With E70G the abundance fitness was -0.095 ± 0.039.
With E70W the abundance fitness was -0.29 ± 0.038.
In the case of E70A, the abundance fitness is reported as -0.098 ± 0.042.
Work on E70R yielded an abundance fitness of -0.036 ± 0.033.
E70S showed an abundance fitness of -0.034 ± 0.032.
In the case of E70F, the abundance fitness is reported as -0.397 ± 0.043.
Work on E70C yielded an abundance fitness of -0.271 ± 0.045.
With E70L the abundance fitness was -0.323 ± 0.029.
Work on V63M yielded an abundance fitness of -0.085 ± 0.093.
In the case of V63K, the abundance fitness is reported as -0.35 ± 0.34.
Variant V63T has an abundance fitness of -0.254 ± 0.11.
With V63P the abundance fitness was -0.161 ± 0.087.
V63R gave an abundance fitness of -0.157 ± 0.049.
V63G gave an abundance fitness of -0.545 ± 0.06.
In the case of V63W, the abundance fitness is reported as -0.022 ± 0.094.
Variant V63I has an abundance fitness of 0.055 ± 0.051.
In the case of V63H, the abundance fitness is reported as 0.019 ± 0.14.
V63Q showed an abundance fitness of -0.34 ± 0.094.
Variant V63F has an abundance fitness of -0.181 ± 0.15.
Variant V63D has an abundance fitness of -0.585 ± 0.27.
In the case of V63S, the abundance fitness is reported as -0.162 ± 0.12.
V63A showed an abundance fitness of -0.135 ± 0.095.
Q65D showed an abundance fitness of -0.065 ± 0.15.
Variant Q65H has an abundance fitness of -0.076 ± 0.2.
Variant Q65C has an abundance fitness of -0.1 ± 0.21.
In the case of Q65V, the abundance fitness is reported as -0.085 ± 0.21.
For Q65R, the abundance fitness was -0.252 ± 0.16.
Variant Q65L has an abundance fitness of -0.486 ± 0.17.
Variant Q65S has an abundance fitness of -0.127 ± 0.3.
Work on Q65K yielded an abundance fitness of -0.011 ± 0.41.
For Q65G, the abundance fitness was 0.011 ± 0.14.
With A66D the abundance fitness was -0.162 ± 0.24.
Variant A66P has an abundance fitness of -0.65 ± 0.14.
Work on A66R yielded an abundance fitness of -0.133 ± 0.08.
For A66L, the abundance fitness was -0.048 ± 0.33.
Variant A66K has an abundance fitness of 0.079 ± 0.12.
Variant A66G has an abundance fitness of -0.013 ± 0.092.
Variant A66T has an abundance fitness of -0.074 ± 0.18.
For A66E, the abundance fitness was 0.053 ± 0.09.
Work on A66Q yielded an abundance fitness of 0.042 ± 0.2.
A66V showed an abundance fitness of -0.429 ± 0.2.
For W67T, the abundance fitness was -0.697 ± 0.11.
In the case of W67Y, the abundance fitness is reported as -0.09 ± 0.087.
Work on W67F yielded an abundance fitness of -0.06 ± 0.065.
W67I showed an abundance fitness of -0.752 ± 0.17.
Variant W67Q has an abundance fitness of -1.02 ± 0.24.
With W67S the abundance fitness was -0.684 ± 0.14.
W67N gave an abundance fitness of -0.491 ± 0.16.
W67P gave an abundance fitness of -0.618 ± 0.1.
With W67C the abundance fitness was -0.496 ± 0.22.
For W67L, the abundance fitness was -0.549 ± 0.052.
Variant W67H has an abundance fitness of -0.795 ± 0.11.
With A71M the abundance fitness was -0.106 ± 0.026.
Work on A71N yielded an abundance fitness of -0.032 ± 0.036.
A71V showed an abundance fitness of -0.073 ± 0.036.
Work on A71D yielded an abundance fitness of -0.574 ± 0.12.
In the case of A71R, the abundance fitness is reported as -0.005 ± 0.043.
For A71K, the abundance fitness was 0.002 ± 0.027.
For A71E, the abundance fitness was -0.103 ± 0.05.
Work on A71Y yielded an abundance fitness of -0.064 ± 0.041.
Variant A71G has an abundance fitness of -0.226 ± 0.03.
Work on A71F yielded an abundance fitness of -0.139 ± 0.034.
For A71T, the abundance fitness was -0.085 ± 0.062.
Work on A71I yielded an abundance fitness of -0.178 ± 0.037.
A71W gave an abundance fitness of -0.281 ± 0.056.
A71S showed an abundance fitness of -0.108 ± 0.039.
